Measured values as given in patent US20220411475A1.

Legend:
[1] = molecular target: PreS1 synthetic peptide p(1-36) (Hepatitis B virus (ayw)); assay: solid-phase ELISA, antigen on plate
[2] = molecular target: PreS1 synthetic peptide p(21-42) (Hepatitis B virus (ayw)); assay: solid-phase ELISA, antigen on plate
[3] = molecular target: PreS1-WHc VLP-1.1 (21-43) (Woodchuck hepatitis virus; Hepatitis B virus (ayw)); assay: solid-phase ELISA, antigen on plate
[4] = molecular target: PreS1-WHc VLP-1.1+ (19-43) (Woodchuck hepatitis virus; Hepatitis B virus (ayw)); assay: solid-phase ELISA, antigen on plate
[5] = molecular target: PreS1-WHc VLP-1.4+ (15-34) (Woodchuck hepatitis virus; Hepatitis B virus (ayw)); assay: solid-phase ELISA, antigen on plate
[6] = molecular target: PreS1-WHc VLP-1.6 (15-40); assay: solid-phase ELISA, antigen on plate
[7] = molecular target: combination of VLPs 1.6+1.9; assay: solid-phase ELISA, antigen on plate
[8] = molecular target: myristoylated rPreS1/PreS2 protein (Hepatitis B virus (ayw)) (UniProt P03138); assay: solid-phase ELISA, antigen on plate
[9] = molecular target: purified HBV virions (Hepatitis B virus); assay: solid-phase ELISA, antigen on plate
[10] = molecular target: recombinant (r) PreS1/PreS2 protein (Hepatitis B virus (ayw)) (UniProt P03138); assay: solid-phase ELISA, antigen on plate
[11] = molecular target: HDV particles coated with HBV envelope proteins (L/M/S HBsAg/ay) (Hepatitis B virus genotype D, subtype ayw) (UniProt P03138); assay: cell-based or functional assay
[12] = molecular target: PreS1 synthetic peptide p(18-25) (Hepatitis B virus (ayw)); assay: solid-phase ELISA, antigen on plate
[13] = molecular target: PreS1-WHc VLP-1.3+ (1-25) (Woodchuck hepatitis virus; Hepatitis B virus (ayw)); assay: solid-phase ELISA, antigen on plate
[14] = molecular target: PreS1-WHc VLP-1.4 (15-31) (Woodchuck hepatitis virus; Hepatitis B virus (ayw)) (UniProt P0C6J2); assay: solid-phase ELISA, antigen on plate
[15] = molecular target: PreS1-WHc VLP-1.5 (1-34) (Woodchuck hepatitis virus; Hepatitis B virus (ayw)); assay: solid-phase ELISA, antigen on plate
[16] = molecular target: PreS1-WHc VLP-1.9 (83-106-NH2/1-25-loop); assay: solid-phase ELISA, antigen on plate

Which results are given for PreS1-specific Mab KR-127 (antibody)?
Min binding conc. [1]: 1.6 ng/mL; Min binding conc. [2]: 1.6 ng/mL; Min binding conc. [3]: 1.6 ng/mL; Min binding conc. [4]: 1000 ng/mL; Min binding conc. [5]: 8 ng/mL; Min binding conc. [6]: 1.6 ng/mL; Min binding conc. [7]: 1.6 ng/mL; Min binding conc. [8]: 1.6 ng/mL; Min binding conc. [9]: 75 ng/mL; Min binding conc. [10]: 1.6 ng/mL

Which results are given for PreS1-specific Mab 18/7 (antibody)?
higher stringency neutralization assay, complete neutralization [11]: > 5 µg/mL; neutralization of HDV-HBV infection of HepaRG cells (intracellular HDV RNA) [11]: < 0.05 µg/mL; Min binding conc. [1]: 1.6 ng/mL; Min binding conc. [12]: 8 ng/mL; Min binding conc. [4]: 0.3 ng/mL; Min binding conc. [13]: 1.6 ng/mL; Min binding conc. [14]: 0.3 ng/mL; Min binding conc. [5]: 8 ng/mL; Min binding conc. [15]: 0.3 ng/mL; Min binding conc. [6]: 0.3 ng/mL; Min binding conc. [16]: 1.6 ng/mL; Min binding conc. [7]: 0.3 ng/mL; Min binding conc. [8]: 0.3 ng/mL; Min binding conc. [9]: 2 ng/mL; Min binding conc. [10]: 0.3 ng/mL
